Test results taken from patent publication US20250163140A1 (Kyowa Kirin, published 2025).
Several values for one entry are separate records, joined by “and”; a condition that tells them apart may be missing. Equal entries are not always repeated. Where two headings read alike, the source gives them in different places.

Tests used:
[1] = molecular target: T1, Recombinant Human FGF-23 (R&D Systems, Cat No. 2604-FG-025/CF) (human, UniProt Q9GZV9 25-251); test: cell-based or functional assay
T1 sequence (looked up): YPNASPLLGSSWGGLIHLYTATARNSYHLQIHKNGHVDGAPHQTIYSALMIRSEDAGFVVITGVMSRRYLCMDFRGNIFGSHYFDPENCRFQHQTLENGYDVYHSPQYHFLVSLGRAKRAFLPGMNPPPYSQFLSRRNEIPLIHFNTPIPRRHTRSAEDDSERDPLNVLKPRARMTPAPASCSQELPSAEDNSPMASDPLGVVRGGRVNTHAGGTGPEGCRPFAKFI

[2] = molecular target: T1, Recombinant Human FGF-23 (R&D Systems, …); test: cell-based or functional assay; remark: listed apart in the source
[3] = molecular target: T1, Recombinant Human FGF-23 (R&D Systems, …); test: SPR, antibody captured on Protein A chip, FGF-23 analyte
[4] = molecular target: T1, Recombinant Human FGF-23 (R&D Systems, …); test: cell-based or functional assay; remark: listed apart in the source
[5] = molecular target: T1, Recombinant Human FGF-23 (R&D Systems, …); test: SPR, antibody captured by anti-human IgG, FGF-23 analyte
[6] = molecular target: T1, Recombinant Human FGF-23 (R&D Systems, …); test: as above; remark: listed apart in the source
[7] = molecular target: T1, Recombinant Human FGF-23 (R&D Systems, …); test: as above; remark: listed apart in the source
[8] = molecular target: T1, Recombinant Human FGF-23 (R&D Systems, …); test: cell-based or functional assay; remark: listed apart in the source
[9] = molecular target: T1, Recombinant Human FGF-23 (R&D Systems, …); test: cell-based or functional assay; remark: listed apart in the source
[10] = molecular target: T1, Recombinant Human FGF-23 (R&D Systems, …); test: SPR, antibody captured by anti-human IgG, FGF-23 analyte; remark: listed apart in the source
[11] = molecular target: T1, Recombinant Human FGF-23 (R&D Systems, …); test: SPR, antibody captured on Protein A chip, FGF-23 analyte; remark: listed apart in the source
[12] = molecular target: T2, human FcRn (human FcRn-His tag with human β2 microglobulin) (human, UniProt P55899 24-297; P61769 21-119); test: SPR pH 6, FcRn-His captured by anti-His, antibody analyte
T2 construct: also called h FcRn; hFcRn
T2 sequence (P55899 other isoform, or with tags, fused parts or gaps limits assumed, chain 1 of 2): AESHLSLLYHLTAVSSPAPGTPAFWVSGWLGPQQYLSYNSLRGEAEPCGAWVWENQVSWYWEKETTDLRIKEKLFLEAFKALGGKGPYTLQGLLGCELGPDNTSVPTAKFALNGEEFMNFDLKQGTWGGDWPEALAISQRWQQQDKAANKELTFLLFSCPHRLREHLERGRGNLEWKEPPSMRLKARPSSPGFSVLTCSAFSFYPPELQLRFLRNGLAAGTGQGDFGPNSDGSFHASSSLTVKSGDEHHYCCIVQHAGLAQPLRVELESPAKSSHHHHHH
T2 sequence (P61769 21-119 limits assumed, chain 2 of 2): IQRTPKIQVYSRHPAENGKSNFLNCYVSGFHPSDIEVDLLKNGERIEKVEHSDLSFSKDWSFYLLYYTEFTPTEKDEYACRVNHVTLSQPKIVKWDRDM

B1: antibody A-10 (antibody, V domains shown)
VH: QVQLVQSGAEVKKPGASVKVSCKASGYTFTNHYMHWVRQAPGQGLEWMGIINPISGSTSNAQKFQGRVTMTRDTSTSTVYMELSSLRSEDTAVYYCARDYVDAFDFWGQGTMVTVSS
VL: AIQLTQSPSSLSASVGDRVTITCRASQGISSALVWYQQKPGKAPKLLIYDASSLESGVPSRFSGSGSGTDFTLTISSLQPEDFATYYCQQFYDDFDFGPGTKVDIK
notes: not shown: human kappa chain constant region
- FGF23 neutralizing activity, fold against antibody A [1]: 2 fold
- FGF23 neutralizing activity IC50 (luciferase promoter assay) [2]: 1.5 ng/mL
- Kd [3]: 20.2 pM

B2: antibody I100Y (antibody, human IgG1, V domains shown)
VH: QVQLVQSGAEVKKPGASVKVSCKASGYTFTNHYMHWVRQAPGQGLEWMGIINPISGSTSNAQKFQGRVTMTRDTSTSTVYMELSSLRSEDTAVYYCARDYVDAFDFWGQGTMVTVSS
VL: AIQLTQSPSSLSASVGDRVTITCRASQGISSALVWYQQKPGKAPKLLIYDASSLESGVPSRFSGSGSGTDFTLTISSLQPEDFATYYCQQFNDYFTFGPGTKVDIK
notes: also called modified antibody I100
- FGF23 neutralizing activity IC50 (luciferase promoter assay) [4]: 3 ng/mL
- Kd [5]: 18.6 pM

B3: antibody I100L (antibody, human IgG1, V domains shown)
VH: QVQLVQSGAEVKKPGASVKVSCKASGYTFTNHYMHWVRQAPGQGLEWMGIINPISGSTSNAQKFQGRVTMTRDTSTSTVYMELSSLRSEDTAVYYCARDLVDAFDFWGQGTMVTVSS
VL: AIQLTQSPSSLSASVGDRVTITCRASQGISSALVWYQQKPGKAPKLLIYDASSLESGVPSRFSGSGSGTDFTLTISSLQPEDFATYYCQQFNDYFTFGPGTKVDIK
notes: as for B2
- Kd [6]: 12.6 pM

B4: antibody I100N (antibody, human IgG1, V domains shown)
VH: QVQLVQSGAEVKKPGASVKVSCKASGYTFTNHYMHWVRQAPGQGLEWMGIINPISGSTSNAQKFQGRVTMTRDTSTSTVYMELSSLRSEDTAVYYCARDNVDAFDFWGQGTMVTVSS
VL: AIQLTQSPSSLSASVGDRVTITCRASQGISSALVWYQQKPGKAPKLLIYDASSLESGVPSRFSGSGSGTDFTLTISSLQPEDFATYYCQQFNDYFTFGPGTKVDIK
notes: as for B2
- FGF23 neutralizing activity IC50 (luciferase promoter assay) [4]: 26.2 ng/mL
- Kd [5]: 93.4 pM

B5: antibody I100R (antibody, human IgG1, V domains shown)
VH: QVQLVQSGAEVKKPGASVKVSCKASGYTFTNHYMHWVRQAPGQGLEWMGIINPISGSTSNAQKFQGRVTMTRDTSTSTVYMELSSLRSEDTAVYYCARDRVDAFDFWGQGTMVTVSS
VL: AIQLTQSPSSLSASVGDRVTITCRASQGISSALVWYQQKPGKAPKLLIYDASSLESGVPSRFSGSGSGTDFTLTISSLQPEDFATYYCQQFNDYFTFGPGTKVDIK
notes: as for B2
- FGF23 neutralizing activity IC50 (luciferase promoter assay) [4]: 82.5 ng/mL
- Kd [5]: 222 pM

B6: antibody D105A (antibody, human IgG1, V domains shown)
VH: QVQLVQSGAEVKKPGASVKVSCKASGYTFTNHYMHWVRQAPGQGLEWMGIINPISGSTSNAQKFQGRVTMTRDTSTSTVYMELSSLRSEDTAVYYCARDIVDAFAFWGQGTMVTVSS
VL: AIQLTQSPSSLSASVGDRVTITCRASQGISSALVWYQQKPGKAPKLLIYDASSLESGVPSRFSGSGSGTDFTLTISSLQPEDFATYYCQQFNDYFTFGPGTKVDIK
notes: also called modified antibody D105
- FGF23 neutralizing activity IC50 (luciferase promoter assay) [4]: > 100 ng/mL
- Kd [7]: 108 pM

B7: antibody D105T (antibody, human IgG1, V domains shown)
VH: QVQLVQSGAEVKKPGASVKVSCKASGYTFTNHYMHWVRQAPGQGLEWMGIINPISGSTSNAQKFQGRVTMTRDTSTSTVYMELSSLRSEDTAVYYCARDIVDAFTFWGQGTMVTVSS
VL: AIQLTQSPSSLSASVGDRVTITCRASQGISSALVWYQQKPGKAPKLLIYDASSLESGVPSRFSGSGSGTDFTLTISSLQPEDFATYYCQQFNDYFTFGPGTKVDIK
notes: as for B6
- FGF23 neutralizing activity IC50 (luciferase promoter assay) [4]: > 100 ng/mL
- Kd [7]: 111 pM

B8: antibody I100H (antibody, human IgG1, V domains shown)
VH: QVQLVQSGAEVKKPGASVKVSCKASGYTFTNHYMHWVRQAPGQGLEWMGIINPISGSTSNAQKFQGRVTMTRDTSTSTVYMELSSLRSEDTAVYYCARDHVDAFDFWGQGTMVTVSS
VL: AIQLTQSPSSLSASVGDRVTITCRASQGISSALVWYQQKPGKAPKLLIYDASSLESGVPSRFSGSGSGTDFTLTISSLQPEDFATYYCQQFNDYFTFGPGTKVDIK
notes: as for B2
- FGF23 neutralizing activity IC50 (luciferase promoter assay) [4]: 8.9 ng/mL
- Kd [5]: 67.2 pM

B9: antibody I100V (antibody, human IgG1, V domains shown)
VH: QVQLVQSGAEVKKPGASVKVSCKASGYTFTNHYMHWVRQAPGQGLEWMGIINPISGSTSNAQKFQGRVTMTRDTSTSTVYMELSSLRSEDTAVYYCARDVVDAFDFWGQGTMVTVSS
VL: AIQLTQSPSSLSASVGDRVTITCRASQGISSALVWYQQKPGKAPKLLIYDASSLESGVPSRFSGSGSGTDFTLTISSLQPEDFATYYCQQFNDYFTFGPGTKVDIK
notes: as for B2
- Kd [6]: 4.73 pM

B10: antibody A (antibody, human IgG1)
heavy: not shown
light: AIQLTQSPSSLSASVGDRVTITCRASQGISSALVWYQQKPGKAPKLLIYDASSLESGVPSRFSGSGSGTDFTLTISSLQPEDFATYYCQQFNDYFTFGPGTKVDIK
notes: Human IgG1 antibody, kappa light chain; also called A_1; A_2; not shown: human kappa chain constant region
- FGF23 neutralizing activity IC50 (luciferase promoter assay) [4]: 1.4 ng/mL
- FGF23 neutralizing activity IC50 (luciferase promoter assay) [8]: 1.2 ng/mL
- FGF23 neutralizing activity IC50 (luciferase promoter assay) [9]: 3.3 ng/mL
- FGF23 neutralizing activity IC50 (luciferase promoter assay), antibody A in same measurement lot [9]: 3.1 ng/mL and 3.3 ng/mL
- FGF23 neutralizing activity IC50 (luciferase promoter assay) [2]: 3.2 ng/mL
- FGF23 neutralizing activity IC50 (luciferase promoter assay), antibody A in same measurement lot [2]: 3.2 ng/mL and 2.8 ng/mL
- Kd [6]: 4.51 pM
- kon [6]: 9.12e+07 M⁻¹ s⁻¹
- Kd [5]: 2.06 pM and 2.6 pM and 3.76 pM
- Kd [10]: 3.76 pM and 4.15 pM
- Kd [7]: 9.93 pM
- Kd [11]: 8.77 pM
- Kd [3]: 14.4 pM

B11: antibody A_IgG4PE_R409K_LS (antibody)
heavy: QVQLVQSGAEVKKPGASVKVSCKASGYTFTNHYMHWVRQAPGQGLEWMGIINPISGSTSNAQKFQGRVTMTRDTSTSTVYMELSSLRSEDTAVYYCARDIVDAFDFWGQGTMVTVSSASTKGPSVFPLAPCSRSTSESTAALGCLVKDYFPEPVTVSWNSGALTSGVHTFPAVLQSSGLYSLSSVVTVPSSSLGTKTYTCNVDHKPSNTKVDKRVESKYGPPCPPCPAPEFEGGPSVFLFPPKPKDTLMISRTPEVTCVVVDVSQEDPEVQFNWYVDGVEVHNAKTKPREEQFNSTYRVVSVLTVLHQDWLNGKEYKCKVSNKGLPSSIEKTISKAKGQPREPQVYTLPPSQEEMTKNQVSLTCLVKGFYPSDIAVEWESNGQPENNYKTTPPVLDSDGSFFLYSKLTVDKSRWQEGNVFSCSVLHEALHSHYTQKSLSLSLGK
light: AIQLTQSPSSLSASVGDRVTITCRASQGISSALVWYQQKPGKAPKLLIYDASSLESGVPSRFSGSGSGTDFTLTISSLQPEDFATYYCQQFNDYFTFGPGTKVDIK
notes: not shown: human kappa chain constant region; copies: 2 + 2
- Kd [12]: 116000 pM

B12: antibody I100A (antibody, human IgG1, V domains shown)
VH: QVQLVQSGAEVKKPGASVKVSCKASGYTFTNHYMHWVRQAPGQGLEWMGIINPISGSTSNAQKFQGRVTMTRDTSTSTVYMELSSLRSEDTAVYYCARDAVDAFDFWGQGTMVTVSS
VL: AIQLTQSPSSLSASVGDRVTITCRASQGISSALVWYQQKPGKAPKLLIYDASSLESGVPSRFSGSGSGTDFTLTISSLQPEDFATYYCQQFNDYFTFGPGTKVDIK
notes: as for B2
- FGF23 neutralizing activity IC50 (luciferase promoter assay) [4]: 5.1 ng/mL
- Kd [6]: 14 pM
- Kd [5]: 25.1 pM
- Kd [10]: 28.9 pM

B13: antibody A_LS (antibody, human IgG1, name in EU numbering)
heavy: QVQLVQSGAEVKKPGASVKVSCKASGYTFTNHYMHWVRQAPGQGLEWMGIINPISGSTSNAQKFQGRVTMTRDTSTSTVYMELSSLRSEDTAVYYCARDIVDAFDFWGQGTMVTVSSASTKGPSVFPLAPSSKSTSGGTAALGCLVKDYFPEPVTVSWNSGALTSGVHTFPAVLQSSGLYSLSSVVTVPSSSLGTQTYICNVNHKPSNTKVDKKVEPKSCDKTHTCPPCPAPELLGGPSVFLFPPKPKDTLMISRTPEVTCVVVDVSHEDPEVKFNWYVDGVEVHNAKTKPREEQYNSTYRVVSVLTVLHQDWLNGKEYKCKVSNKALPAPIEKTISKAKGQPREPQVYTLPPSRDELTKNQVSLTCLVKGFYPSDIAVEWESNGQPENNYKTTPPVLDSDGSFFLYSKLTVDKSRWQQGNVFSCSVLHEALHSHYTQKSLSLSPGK
light: AIQLTQSPSSLSASVGDRVTITCRASQGISSALVWYQQKPGKAPKLLIYDASSLESGVPSRFSGSGSGTDFTLTISSLQPEDFATYYCQQFNDYFTFGPGTKVDIK
notes: positions are EU index; not shown: human kappa chain constant region; copies: 2 + 2
- Kd [12]: 142000 pM

B14: antibody A_G2_LS (antibody)
heavy: QVQLVQSGAEVKKPGASVKVSCKASGYTFTNHYMHWVRQAPGQGLEWMGIINPISGSTSNAQKFQGRVTMTRDTSTSTVYMELSSLRSEDTAVYYCARDIVDAFDFWGQGTMVTVSSASTKGPSVFPLAPCSRSTSESTAALGCLVKDYFPEPVTVSWNSGALTSGVHTFPAVLQSSGLYSLSSVVTVPSSNFGTQTYTCNVDHKPSNTKVDKTVERKCCVECPPCPAPPVAGPSVFLFPPKPKDTLMISRTPEVTCVVVDVSHEDPEVQFNWYVDGVEVHNAKTKPREEQFNSTFRVVSVLTVVHQDWLNGKEYKCKVSNKGLPAPIEKTISKTKGQPREPQVYTLPPSREEMTKNQVSLTCLVKGFYPSDIAVEWESNGQPENNYKTTPPMLDSDGSFFLYSKLTVDKSRWQQGNVFSCSVLHEALHSHYTQKSLSLSPGK
light: AIQLTQSPSSLSASVGDRVTITCRASQGISSALVWYQQKPGKAPKLLIYDASSLESGVPSRFSGSGSGTDFTLTISSLQPEDFATYYCQQFNDYFTFGPGTKVDIK
notes: as for B11
- Kd [12]: 310000 pM
